Experimental data from paper PMC3235159.

Assays:
[1] = molecular target: Purified LRP1 (LDL receptor-related protein 1) (UniProt Q07954); experiment: SPR; purified LRP1 immobilised on a CM5 chip by amine coupling (5.8 fmol/mm^2, 3,500 RU); TGF-β2 flowed at 6, 12, 15, 50, 100 and 200 nM; HBS-P pH 7.4, 0.005% Tween 20, 1 mM CaCl2, 20 µl/min, 25°C; Rmax of pseudo-first order fits replotted against concentration and fit to a single class of sites
TGF-β1 (Homo sapiens) = TGF-β1 (Homo sapiens) (UniProt P01137); conditions: cited from earlier work
TGF-β1 (Homo sapiens), sequence (P01137 279-390): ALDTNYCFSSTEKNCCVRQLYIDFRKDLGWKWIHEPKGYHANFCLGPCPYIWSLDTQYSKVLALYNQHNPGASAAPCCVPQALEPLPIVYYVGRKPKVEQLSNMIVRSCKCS

LRP1, sequence (Q07954 20-4544): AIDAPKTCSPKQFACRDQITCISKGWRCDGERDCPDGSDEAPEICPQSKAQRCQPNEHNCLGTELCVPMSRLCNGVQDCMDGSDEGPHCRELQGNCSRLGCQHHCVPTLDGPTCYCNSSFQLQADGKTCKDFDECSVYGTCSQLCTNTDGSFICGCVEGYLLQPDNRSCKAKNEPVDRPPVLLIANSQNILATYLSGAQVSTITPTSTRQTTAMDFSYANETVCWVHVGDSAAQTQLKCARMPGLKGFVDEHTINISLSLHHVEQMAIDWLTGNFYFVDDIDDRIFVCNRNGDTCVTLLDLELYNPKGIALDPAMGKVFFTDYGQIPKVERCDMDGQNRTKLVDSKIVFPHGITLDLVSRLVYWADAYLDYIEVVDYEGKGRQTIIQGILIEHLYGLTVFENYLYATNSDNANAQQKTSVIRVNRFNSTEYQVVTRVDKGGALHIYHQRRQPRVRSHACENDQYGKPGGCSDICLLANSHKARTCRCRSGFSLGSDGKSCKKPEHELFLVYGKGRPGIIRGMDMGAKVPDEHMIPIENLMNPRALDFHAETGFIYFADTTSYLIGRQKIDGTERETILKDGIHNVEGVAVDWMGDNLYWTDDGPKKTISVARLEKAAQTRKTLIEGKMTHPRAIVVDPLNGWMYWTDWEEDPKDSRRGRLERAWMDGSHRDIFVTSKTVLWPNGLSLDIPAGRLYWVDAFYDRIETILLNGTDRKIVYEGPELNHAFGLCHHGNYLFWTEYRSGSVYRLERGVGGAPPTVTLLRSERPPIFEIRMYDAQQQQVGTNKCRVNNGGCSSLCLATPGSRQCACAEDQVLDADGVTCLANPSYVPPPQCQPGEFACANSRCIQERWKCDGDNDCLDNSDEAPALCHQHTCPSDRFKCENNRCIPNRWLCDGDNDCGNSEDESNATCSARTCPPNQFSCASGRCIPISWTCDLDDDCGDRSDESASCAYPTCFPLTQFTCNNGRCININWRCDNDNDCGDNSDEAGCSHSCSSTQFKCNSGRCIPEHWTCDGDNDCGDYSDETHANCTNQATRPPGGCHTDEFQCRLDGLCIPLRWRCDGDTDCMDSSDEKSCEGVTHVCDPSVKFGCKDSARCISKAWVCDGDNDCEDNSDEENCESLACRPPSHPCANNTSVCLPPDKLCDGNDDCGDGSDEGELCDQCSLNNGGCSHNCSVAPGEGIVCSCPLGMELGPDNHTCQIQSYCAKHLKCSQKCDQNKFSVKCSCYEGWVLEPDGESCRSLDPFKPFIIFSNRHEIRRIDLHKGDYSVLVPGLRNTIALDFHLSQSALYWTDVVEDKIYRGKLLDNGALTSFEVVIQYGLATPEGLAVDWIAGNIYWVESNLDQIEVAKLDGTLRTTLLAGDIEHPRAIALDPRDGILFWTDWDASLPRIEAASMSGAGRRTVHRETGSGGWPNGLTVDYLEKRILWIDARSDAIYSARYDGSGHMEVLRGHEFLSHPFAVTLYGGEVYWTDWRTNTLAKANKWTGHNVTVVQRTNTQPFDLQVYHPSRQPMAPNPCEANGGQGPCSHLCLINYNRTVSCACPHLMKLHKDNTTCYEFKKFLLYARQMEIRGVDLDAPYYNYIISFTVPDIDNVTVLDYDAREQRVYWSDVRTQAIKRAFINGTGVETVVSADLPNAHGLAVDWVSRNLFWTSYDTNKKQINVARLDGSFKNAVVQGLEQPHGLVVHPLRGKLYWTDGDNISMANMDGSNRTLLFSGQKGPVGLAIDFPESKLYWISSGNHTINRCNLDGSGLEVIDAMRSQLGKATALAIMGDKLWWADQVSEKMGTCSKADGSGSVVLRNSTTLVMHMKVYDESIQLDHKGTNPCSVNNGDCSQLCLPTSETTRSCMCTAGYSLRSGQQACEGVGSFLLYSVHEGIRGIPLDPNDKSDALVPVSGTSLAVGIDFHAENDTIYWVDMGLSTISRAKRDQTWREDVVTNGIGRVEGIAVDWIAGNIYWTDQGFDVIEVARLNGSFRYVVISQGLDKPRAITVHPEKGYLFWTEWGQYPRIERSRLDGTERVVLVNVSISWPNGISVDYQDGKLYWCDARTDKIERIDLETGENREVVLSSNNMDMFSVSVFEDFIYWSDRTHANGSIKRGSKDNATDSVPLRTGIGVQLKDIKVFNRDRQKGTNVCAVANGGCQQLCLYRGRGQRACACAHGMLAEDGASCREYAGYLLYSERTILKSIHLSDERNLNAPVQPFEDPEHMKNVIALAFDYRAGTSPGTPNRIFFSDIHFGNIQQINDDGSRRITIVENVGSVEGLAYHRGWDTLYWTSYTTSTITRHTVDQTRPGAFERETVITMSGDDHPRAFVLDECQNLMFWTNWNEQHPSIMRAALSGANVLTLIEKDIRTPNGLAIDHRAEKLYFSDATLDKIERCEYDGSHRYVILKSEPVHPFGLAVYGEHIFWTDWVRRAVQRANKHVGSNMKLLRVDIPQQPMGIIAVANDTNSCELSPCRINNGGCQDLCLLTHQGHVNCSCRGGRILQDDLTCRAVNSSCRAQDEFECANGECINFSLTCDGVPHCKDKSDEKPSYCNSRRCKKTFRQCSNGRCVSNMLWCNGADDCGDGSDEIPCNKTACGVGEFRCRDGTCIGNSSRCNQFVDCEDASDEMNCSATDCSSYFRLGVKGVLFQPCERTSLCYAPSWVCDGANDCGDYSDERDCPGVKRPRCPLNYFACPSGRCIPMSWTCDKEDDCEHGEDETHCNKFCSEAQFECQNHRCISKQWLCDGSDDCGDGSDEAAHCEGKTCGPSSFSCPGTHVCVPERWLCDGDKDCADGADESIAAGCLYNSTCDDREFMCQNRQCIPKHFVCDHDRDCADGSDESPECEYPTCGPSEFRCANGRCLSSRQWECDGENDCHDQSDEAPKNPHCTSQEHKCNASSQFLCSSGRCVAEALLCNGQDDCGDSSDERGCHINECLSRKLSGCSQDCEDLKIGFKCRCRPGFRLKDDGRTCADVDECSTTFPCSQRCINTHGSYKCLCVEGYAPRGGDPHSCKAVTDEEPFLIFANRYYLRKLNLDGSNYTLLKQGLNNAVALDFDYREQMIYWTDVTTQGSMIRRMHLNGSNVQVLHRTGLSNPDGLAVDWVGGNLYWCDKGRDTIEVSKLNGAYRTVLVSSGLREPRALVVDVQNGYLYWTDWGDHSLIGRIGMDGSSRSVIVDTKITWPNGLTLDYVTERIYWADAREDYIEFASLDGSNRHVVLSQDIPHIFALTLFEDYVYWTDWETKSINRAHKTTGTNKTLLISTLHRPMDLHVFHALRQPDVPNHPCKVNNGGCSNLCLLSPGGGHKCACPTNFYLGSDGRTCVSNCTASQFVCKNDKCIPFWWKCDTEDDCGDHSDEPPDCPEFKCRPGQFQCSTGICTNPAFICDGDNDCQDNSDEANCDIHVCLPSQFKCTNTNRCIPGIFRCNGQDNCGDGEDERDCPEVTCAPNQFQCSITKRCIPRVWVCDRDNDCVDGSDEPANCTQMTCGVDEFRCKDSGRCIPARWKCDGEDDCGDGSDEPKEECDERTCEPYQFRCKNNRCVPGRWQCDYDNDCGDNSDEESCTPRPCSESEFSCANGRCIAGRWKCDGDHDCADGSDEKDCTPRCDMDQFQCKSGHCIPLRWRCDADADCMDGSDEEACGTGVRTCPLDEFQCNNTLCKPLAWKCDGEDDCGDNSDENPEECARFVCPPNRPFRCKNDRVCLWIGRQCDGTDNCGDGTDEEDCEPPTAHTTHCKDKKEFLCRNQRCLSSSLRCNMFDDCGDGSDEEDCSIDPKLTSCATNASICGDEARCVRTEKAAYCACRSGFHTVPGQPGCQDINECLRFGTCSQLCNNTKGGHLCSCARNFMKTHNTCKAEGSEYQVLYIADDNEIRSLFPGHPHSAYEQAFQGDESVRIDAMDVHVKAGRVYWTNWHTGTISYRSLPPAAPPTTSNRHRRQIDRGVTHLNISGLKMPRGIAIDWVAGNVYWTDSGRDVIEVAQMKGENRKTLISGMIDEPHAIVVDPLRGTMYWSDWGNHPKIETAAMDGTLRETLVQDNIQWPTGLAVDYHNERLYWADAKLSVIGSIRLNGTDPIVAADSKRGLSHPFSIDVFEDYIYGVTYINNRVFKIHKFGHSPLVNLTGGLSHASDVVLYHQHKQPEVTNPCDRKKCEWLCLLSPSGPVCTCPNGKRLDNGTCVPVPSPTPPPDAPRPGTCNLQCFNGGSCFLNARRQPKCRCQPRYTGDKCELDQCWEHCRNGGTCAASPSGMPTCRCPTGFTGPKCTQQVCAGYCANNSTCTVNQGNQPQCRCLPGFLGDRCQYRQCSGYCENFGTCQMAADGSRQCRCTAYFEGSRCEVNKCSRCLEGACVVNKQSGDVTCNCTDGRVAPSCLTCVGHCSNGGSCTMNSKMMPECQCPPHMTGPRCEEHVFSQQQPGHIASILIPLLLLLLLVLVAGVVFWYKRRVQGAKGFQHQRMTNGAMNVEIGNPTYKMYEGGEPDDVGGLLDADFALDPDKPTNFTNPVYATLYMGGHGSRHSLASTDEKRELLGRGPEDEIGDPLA
Purified LRP1 (LDL receptor-related protein 1), sequence (Q07954 20-4544): as above

Substance	Kd [1] [nM]	Kd (TGF-β1 (Homo sapiens)) [nM]
TGF-β2 (Sigma) (ligand)	222	–
LRP1 (from UniProt Q07954)	–	157
